From patent US20030219445A1
Values joined by “and” are separate entries in the source; they are usually repeats but may differ in a detail not shown here. Equal values may be shown once.

Legend:
[1] = target: biotinylated 9C5 antibody (anti-human CD34 monoclonal antibody, biotinylated with Biotin Hydrazide); assay: cell-based or functional assay
[2] = target: CD34 antibody 9069 (9C5) coated on M-450 Dynabeads; assay: cell-based or functional assay

- % SUP-T1 Yield (tube 2, cells released with free PR34+ peptide) [1]: 43%
- % SUP-T1 Yield (tube 3, cells released with free PR34+ peptide) [1]: 31%
- % T-cells released with 9069N 2.5 mg (CD2-9069N 1 µg, b-9069 1 µg) [1]: 71%
- % T-cells released with 9069N 2.5 mg (CD2-9069N 1 µg, b-9069 10 µg) [1]: 87% and 65%
- % T-cells released with 9069N 2.5 mg (CD2-9069N 5 µg, b-9069 1 µg) [1]: 61% and 56%
- % T-cells released with 9069N 2.5 mg (CD2-9069N 5 µg, b-9069 10 µg) [1]: 50%
- % Yield of CD8+ cells (condition 3, released with free PR34+ peptide) [1]: 16%
- % Yield, released with PR34+ 2.5 mg (streptavidin coated Dynabead control) [1]: 81.5%
- % Yield, released with PR34+ 2.5 mg (beads with 1 µg antibody per 10^8 beads) [2]: 55.9%
- % Yield, released with PR34+ 2.5 mg (beads with 5 µg antibody per 10^8 beads) [2]: 68.9%
- % Yield, released with PR34+ 2.5 mg (beads with 20 µg antibody per 10^8 beads) [2]: 47.4%
- % Yield, released with PR34+ 2.5 mg (beads with 50 µg antibody per 10^8 beads) [2]: 57.5%
- release of Camma cells from anti-CD34-coated Dynabeads [2]: > 75%
- yield of Camma cells after release with PR34 peptide [2]: > 70%
Binder: QQGWFPKD (N-terminal acetyl (printed Ac-QQGWFPKD)) [free PR34+ peptide Ac-QQGWFPKD]
